In patent publication US20100199363A1, “ENZYMES FOR DEGRADING HERBICIDES” (priority 2006, published 2010):
Read-outs that look alike come from different tables or passages of the source.

Experiments:
[1] = system: GloxA; assay: Substrate range of partially purified recombinant GloxA; type: biochemical, Arthrobacter sp. TBD; conditions: for Removal of substrate, Specific Activity: partially purified recombinant GloxA; for Removal of substrate, Relative Activity: relative to glyphosate = 100
Description: (§1) Crude enzyme extracts from E. coli cells were prepared as follows. Cells were harvested and the cell pellets resuspended in 1 mL lysis buffer (25 mM Tris-Cl pH 7.5 with 1 mgml^−1 lysosyme) and lysed by sonication on ice (Branson sonifier, 60% duty cycle, 30 seconds on, 30 seconds off for ten repeats). The soluble fraction was collected by centrifugation at 5000 g for 5 minutes and the protein content measured using Biorad protein dye-binding assay (BIORAD). Partially purified extracts were prepared by purification of the S-tagged or HIS-tagged GloxA protein from soluble CFE using S-protein agarose (Novagen) the Talon HIS-tag Purification System (BD Biosciences), according to manufacturer's instructions. Partially pure GloxA was eluted from the column using either 3M MgCl2 or 2.5 mM imidazole in the loading buffer. Enzyme reactions were prepared containing 500 μL crude enzyme extract or 250 μL partially purified enzyme extract (˜10 μg protein lysate) in 25 mM Tris-Cl pH7.5, 1 mM FAD, 0.1 mM MgCl2. After preincubation at 37° C. for 2 minutes, 1 mM glyphosate was added to the reaction, which was then incubated with shaking for a further 10-60 minutes. After the required reaction time, reactions were derivatized with tosyl chloride and analysed by HPLC as described above. All enzyme assays were performed in triplicate and repeated at least twice to confirm data. For determination of apparent kinetic parameters, substrate concentrations were varied over a suitable range, and the data fitted to a sum of exponential equations using Kaleidagraph (Synergy Software) or Hyper 1.1 (J. S. Easterby).

[2] = Resting cell biocatalytic assay of cells expressing recombinant GloxA; type: cell-based, E. coli
Description: (§2) Detection of glyphosate and AMPA by HPLC analysis was performed using a modified version of the method of Tomita et al. (1991) (Column: C18 4.6 uM, 5 Å column. Mobile Phase: 0.2MK2HPO4, 15% acetonitrile). Analytes were derivatized with tosyl chloride and detected at a wavelength of 240 nm. One ml of reaction supernatant was mixed with 0.5 mL 0.4MNaHPO4 pH 11.0, followed by addition of 200 μL tosyl chloride solution (10 mgmL^−1 p-toluene sulfonylchloride [Sigma] in acetonitrile). After incubation at 50° C. for 5 minutes, 20 μL of filtered reaction product was injected onto the HPLC for analysis.
The glyphosate-degrading protein was designated GloxA, and sub-cloning of gloxA into an expression vector and assaying for glyphosate-degrading activity confirmed cells expressing recombinant GloxA were able to degrade glyphosate, with resting cell biocatalytic assays having glyphosate-degrading activity of 300 μmol min^−1 mg wet cell mass^−1, and crude enzyme extracts having an activity of 841 μmolmin^−1mg total protein (Table 2). Of importance is that glycine was not detected as a product at this stage of the analysis of GloxA, and is presumed to have been rapidly metabolized by other enzymes contained within the E. coli resting cells and crude enzyme extract preparation.

[3] = GloxA enzyme assay with crude or partially purified extracts, HPLC after tosyl chloride derivatization; type: biochemical
Description: as §2, §1

[4] = Apparent kinetic parameters of GloxA, glyphosate as substrate; type: biochemical; conditions: herbicide glyphosate
Description: as §1, with “For determination of apparent kinetic parameters, substrate concentrations were varied over a suitable range, and the data fitted to a sum of exponential equations using Kaleidagraph (Synergy Software) or Hyper 1.1 (J. S. Easterby).” left out

[5] = Apparent kinetic parameters of GloxA, glufosinate as substrate; type: biochemical; conditions: herbicide glufosinate
Description: as §1, with “After preincubation at 37° C. for 2 minutes, 1 mM glyphosate was added to the reaction, which was then incubated with shaking for a further 10-60 minutes.” left out, “For determination of apparent kinetic parameters, substrate concentrations were varied over a suitable range, and the data fitted to a sum of exponential equations using Kaleidagraph (Synergy Software) or Hyper 1.1 (J. S. Easterby).” left out

[6] = Glyphosate degradation by GloxA-like homologous proteins, soluble cell-free extracts; type: biochemical; conditions: soluble cell-free protein extracts
From the text: Selected putative GloxA-like homologous proteins were then expressed and assayed for glyphosate degradative activity. The nucleotide coding sequences of selected putative homologues were commercially synthesised (Geneart, GmBH), cloned and expressed using the Champion pET200D/TOPO. Expression System (Invitrogen), according to manufacturer's instructions. Recombinant protein expression was verified and quantitated by Coomasie-stained SDS-PAGE analysis and spot-densitometry using AlphaImager 2200 visualization and documentation system (Alpha Innotech).
Enzymatic assays to assess glyphsate degradation were, performed using soluble cell-free protein extracts (partially purified protein) in a 1 ml volume containing 100 μg total cell-free protein (˜10 μg enzyme extract), 1 mM MgCl2, 1 mM glycine in 20 mM Tris-Cl pH 7.2. Negative controls included cell-free extracts from E. coli BL21 Star both containing no expression vector and containing pET200D/TOPO without an insert.

[7] = Side-by-side assay of GloxA and synthetic GOX extracts, glyphosate; type: biochemical; conditions: extracts assayed side-by-side, FIG. 4
Description: (§3) Crude enzyme extracts from E. coli cells were prepared as follows. Cells were harvested and the cell pellets resuspended in 1 mL lysis buffer (25 mM Tris-Cl pH 7.5 with 1 mgml^−1 lysosyme) and lysed by sonication on ice (Branson sonifier, 60% duty cycle, 30 seconds on, 30 seconds off for ten repeats). The soluble fraction was collected by centrifugation at 5000 g for 5 minutes and the protein content measured using Biorad protein dye-binding assay (BIORAD). Partially purified extracts were prepared by purification of the S-tagged or HIS-tagged GloxA protein from soluble CFE using S-protein agarose (Novagen) the Talon HIS-tag Purification System (BD Biosciences), according to manufacturer's instructions. […] After the required reaction time, reactions were derivatized with tosyl chloride and analysed by HPLC as described above. […]
(§4) For the purposes of direct comparison between the enzymes, a synthetic construct was made encoding the GOX gene based on SEQ ID NO:17 from U.S. Pat. No. 5,776,760. […] Soluble protein expression of GOX was optimized under varying temperature and IPTG conditions, and GOX protein expression detected by Coomasie-stained SDS-PAGE analysis and GOX enzymatic activity assayed as described above for GloxA, with HPLC analysis of activity to detect the removal of glyphosate and production of AMPA according to analytical methods above.

[8] = Side-by-side assay of GloxA and synthetic GOX extracts, iminodiacetic acid; type: biochemical; conditions: extracts assayed side-by-side, FIG. 4
Description: as §3, §4

[9] = system: A. thaliana var. Landsberg; assay: Glyphosate tolerance of Arabidopsis plants expressing GloxA (Tolerance Score); type: in vivo, Arabidopsis thaliana; conditions: five times the normal dose (12.5 kga.i.ha^−1), Day 8 post-application of herbicide
From the text: FIG. 5. […] To obtain the Tolerance Score, plants were visually assessed for leaf health, plant radius and flowering on Day 8 post-application of herbicide. Untreated controls in perfect health scored 7-8 under the same system.
T1 seedlings can be transplanted and cultivated for seed through two generations to eventually isolate the homozygous T3 seeds. T2 and T3 plants were then screened for increased resistance to glyphosate, essentially using the methods described by Jander et al. (2003), but with A. thaliana var. Landsberg, not Columbia, and using treatment doses ranging from 2.5-25 kg a.i. ha^−1. The scores given in FIG. 5 are for a dose of 5× the expected I100 dose (12.5 kga.i.ha^−1)

[10] = GloxA enzyme assay with crude or partially purified extracts, HPLC after tosyl chloride derivatization; type: biochemical; conditions: for Glyphosate Removal: partially purified GloxA
[11] = herbicide glyphosate; Siehl et al. (2005), WO 92/00377; cited from earlier work
[12] = wildtype GOX, U.S. Pat. No. 5,776,760; cited from earlier work

For `NCP(=O)(O)O` [AMPA, aminomethylphosphonic acid], the “Removal of substrate, Specific Activity” value [1] was 602 μmolmin^−1 mg^−1 and the “Removal of substrate, Relative Activity” value [1] was 71%.

For `O=C(O)CNCP(=O)(O)O` [glyphosate, N-(phosphonomethyl)glycine], the “Removal of substrate, Specific Activity” value [1] was 841 μmolmin^−1 mg^−1 and the “Removal of substrate, Relative Activity” value [1] was 100%.

In the case of `O=C(O)CNCC(=O)O` [iminodiacetic acid], the “Removal of substrate, Specific Activity” value [1] is reported as 5013 μmolmin^−1 mg^−1 and the “Removal of substrate, Relative Activity” value [1] is reported as 598%.

B1: GloxA: 473 amino acid glyphosate-degrading putative oxidoreductase from Arthrobacter sp. TBD, SEQ ID NO:1 (protein)
chain: VKTTVFERNVPQTAVVSHALAGAAHRPYWIDHLQDSATRYPQLDGDAAADLVIVGGGYTGLWTALRAKERDPGRTVILLEGEQVAWAASGRNGGFCEASLTHGHENGKNRWPDELETLDRLGMENLDRMQEAVEKYAMDCEWERTGELNVAVEPHQVAWLQEDDTPGSVFLDQDAVRAEVNSPTYLAGRWHKDSVAMVHPYKLGLELARVATELGVVIYEGTRVRELNDHEHGVTVVTERGIVEAGHVVLGTNVFPSLLKRNQLMTVPVYDYALMTEPLTAEQLESIGWGKRQGIGDVANQFHYYRITKDHRILFGGYDALYFWGRRVDQKHEHQPATWEKIASHFFTTFPQLEGLKFTHKWAGPIDSSTQFCAFFGTARKGRVAYAAGFTGLGVGATAFAADVLLDLLAGLDTERTRLEMVRKRPLPFPPEPLASLGINLTRWSMDRADHNQGKRNIILKALDAVGLGFDS
modifications: Arthrobacter sp. TBD
In the case of B1, the “Catalytic Activity, Removal of glyphosate” value [2] is reported as 300 μmolmin^−1 mg^−1 wet cell mass, the “Specific Activity, Removal of glyphosate” value ([3]; Crude enzyme extract, approximate value) is reported as 841 μmolmin^−1 mg^−1 protein and the “glycine as a product” value ([3]; E. coli resting cells and crude enzyme extract preparation) is reported as “not detected”. For the same molecule, the “Specific Activity, Production of glycine” value ([3]; PPE + FAD + Mg^2+) was 548 μmolmin^−1 mg^−1 protein, the “production of AMPA from glyphosate” value ([3]; crude extracts and partially purified GloxA) was “no production” and the “Glyphosate Removal” value ([3]; partially purified GloxA, Std (Mg^2+)) was 856 µmol/min/mg. The “Specific Activity, Removal of glyphosate” value ([3]; partially purified enzyme extract, PPE + FAD + Mg^2+) was 1590 μmolmin^−1 mg^−1 protein, the Kcat [4] was 179.97 s⁻¹ and the Km [4] was 56 µM. The Kcat [5] was 158.9 s⁻¹, the Km [5] was 1200 µM and the “Partially Purified Activity [glyphosate degradation]” value [6] was 841 µmol/min/mg. The “specific activity towards glyphosate compared with GOX” value [7] was “almost two fold higher”, the “specific activity towards iminodiacetic acid compared with GOX” value [8] was 0.9 times less and the “tolerance to glyphosate (Tolerance Score)” value [9] was “confers tolerance”. The “Specific Activity, Production of glycine” value ([10]; PPE + FAD − Mg^2+) was 413 μmolmin^−1 mg^−1 protein, the “Specific Activity, Removal of glyphosate” value ([10]; PPE + FAD − Mg^2+) was 838 μmolmin^−1 mg^−1 protein and the “Specific Activity, Production of glycine” value ([10]; PPE − FAD + Mg^2+) was 562 μmolmin^−1 mg^−1 protein. The “Specific Activity, Removal of glyphosate” value ([10]; PPE − FAD + Mg^2+) was 1450 μmolmin^−1 mg^−1 protein, the “Glyphosate Removal” value ([10]; Co^2+) was 1076 µmol/min/mg and the “Glyphosate Removal” value ([10]; No FAD) was 520 µmol/min/mg. For the same molecule, the “Glyphosate Removal” value ([10]; No Metals (+EDTA)) was 432 µmol/min/mg and the “Glyphosate Removal” value ([10]; Zn^2+) was 624 µmol/min/mg.

B2: GOX: Glyphosate oxidoreductase producing AMPA and glyoxylate from glyphosate, SEQ ID NO:3 (protein)
chain: MSENHKKVGIAGAGIVGVCTALMLQRRGFKVTLIDPNPPGEGASFGNAGCFNGSSVVPMSMPGNLTSVPKWLLDPMGRCQSGSAISNHHAWLIRFLLAGRPNKVKEQAKALRNLIKSTVPLIKSLAEEADASHLIRHEGHLTVYRGEADFAKDRGGWELRRLNGVRTQILSADALRDFDPNLSHAFTKGILIEENGHTINPQGLVTLLFRRFIANGGEFVSARVIGFETEGRALKGITTTNGVLAVDAAVVAAGAHSKSLANSLGDDIPLDTERGYHIVIANPEAAPRIPTTDASGKFIATPMEMGLRVAGTVEFAGLTAAPNWKRAHVLYTHARKLLPALAPASSEERYSKWMGFRPSIPDSLPVIGRATRTPDVIYAFGHGHLGMTGAPMTATLVSELLAGEKTSIDISPFAPNRFGIGKSKQTGPAS
modifications: Pseudomonas sp. LBAA
In the case of B2, the Kcat [11] is listed as 0.667 s⁻¹, the Km [11] is listed as 25000 to 28000 µM and the specific activity [12] is listed as 15 nmolmin^−mg^−1.
